Source: patent US7371842B2, “Polynucleotide encoding a 35 KDA protein thats binds to WF00144” (Astellas Pharma Inc., priority 2002, dated 2008)

Test: Aldol cleavage reaction of fructose 1,6-bisphosphate, coupled with TIM/G3PDH, NADH 340 nm
Type: biochemical
Details: F1,6P2 cleaved, 37° C., 30 minutes, pH 8.0
Protocol: The aldolase activity of the human 35 kd protein was determined as follows, according to the method described in a reference (Novel Biochemistry Experiment Lectures, Vol. 15, Metabolism Abnormality, p. 111, edit. Biochemical Society of Japan, publish. Tokyo Kagaku Dojin-sha, Sep. 22, 1992):
Conjugated with triose phosphate isomerase (TIM) and glycerol 3-phosphate dehydrogenase (G3PDH), the aldol cleavage reaction of fructose 1,6-bisphosphate (F1, 6P2) with the 35 kd protein was determined with NADH.
A reaction liquid having the composition mentioned below was prepared, and reacted at 37° C. for 30 minutes. The enzymatic reaction was monitored through the reduction in the 340 nm absorbance owing to the oxidation of NADH in the reaction liquid. The enzymatic reaction was indicated by the number of mols of F1, 6P2, per mg of the protein, cleaved within 1 minute (μmol/min/mg protein).
Reaction liquid 200 μl: 0.25 mM tris HCl buffer (pH 8.0), 0.15 M NaCl, 0.5 mM F1, 6P2 (from Sigma), human 35 kd protein, human liver TIM (500 μg/ml), rabbit skeletal muscle G3PDH (8 units/ml, from Sigma), 0.3 mM NADH (from Nakarai).
For comparison, a commercial product aldolase, Sigma's rabbit skeletal muscle aldolase (A-type aldolase), and an enzyme-free system were tested in the same manner.

Sigma's commercial product aldolase: commercial product aldolase, Sigma's rabbit skeletal muscle aldolase (A-type aldolase)
Aldolase Activity (μmol/min/mg protein): 0.278 μmol/min/mg protein
